Data reported in paper PMC10372118.

Target: truncated human ACE2 (residues 19-613 with a C-terminal AviTag and 6xHis-tag), biotinylated (human) (UniProt Q9BYF1)
Experiment: BLI

Substance: SARS-CoV-2 ancestral receptor-binding domain (RBD), recombinant (from UniProt P0DTC2) (domain or fragment)
- t1/2: 1.39 min
